Test results reported in US20230279132A1, “TREATMENT OF B CELL MALIGNANCIES” (NOVARTIS AG, priority 2020, published 2023).

Target: B-cell activating factor receptor (BAFF-R) (human) (UniProt Q96RJ3)
Test: receptor occupancy in patients with CLL given VAY736 i.v. with ibrutinib (clinical study CVAY736Y2102); method not stated

tissue receptor occupancy: > 99%
B1: ianalumab (antibody, human IgG1, kappa, V domains shown)
VH: QVQLQQSGPGLVKPSQTLSLTCAISGDSVSSNSAAWGWIRQSPGRGLEWLGRIYYRSKWYNSYAVSVKSRITINPDTSKNQFSLQLNSVTPEDTAVYYCARYDWVPKIGVFDSWGQGTLVTVSS
VL: DIVLTQSPATLSLSPGERATLSCRASQFISSSYLSWYQQKPGQAPRLLIYGSSSRATGVPARFSGSGSGTDFTLTISSLEPEDFAVYYCQQLYSSPMTFGQGTKVEIKR
